# B1: X-ray substrate template A (16) (dsDNA)
# DNA 1: CCGACAGCGCATCAGC
# DNA 2: GCTGATGCGC
# DNA 3: GTCGG
# B2: NMR substrate template T (20) (dsDNA)
# DNA 1: CGACCGACTGCGCATCAGCC
# DNA 2: GGCTGATGCGC
# DNA 3: GTCGGTCG
# Key:
# [1] = target: T1, DNA polymerase beta I260Q (NMR, crystal) (UniProt P06746 1-335, I260Q); assay: X-ray crystallography; binary; NaI soak; NMR: 50 mM HEPES, 100 mM KCl, 2 mM DTT, 10 mM MgCl2, 10% D2O, pH 7.4; crystals: 18-20% PEG 3350, 50 mM HEPES pH 7.5, 175-250 mM Na acetate, 2 mM TCEP, 1% tert-b
# [2] = target: T1, DNA polymerase beta I260Q (NMR, crystal); assay: NMR; binary, 10 mM MgCl2; NMR: 50 mM HEPES, 100 mM KCl, 2 mM DTT, 10 mM MgCl2, 10% D2O, pH 7.4; crystals: 18-20% PEG 3350, 50 mM HEPES pH 7.5, 175-250 mM Na acetate, 2 mM TCEP, 1% tert-b
Binder,binding result [1],binding result [2]
B1,binds,
B2,,binds

# Reference: paper PMC6237750
